Laboratory results from patent publication US20050118601A1, “Enhancer sequence of the 5-aminolevulinic acid synthase gene” (priority 2002, published 2005).

Tests used:
RXR [1] = biological target: T1, RXR (Gallus gallus, UniProt P28701 P28701:1-467); assay: EMSA; RXR alone; details: tags: TNT T7 Quick Coupled; pSG5; label: 32P
T1 sequence: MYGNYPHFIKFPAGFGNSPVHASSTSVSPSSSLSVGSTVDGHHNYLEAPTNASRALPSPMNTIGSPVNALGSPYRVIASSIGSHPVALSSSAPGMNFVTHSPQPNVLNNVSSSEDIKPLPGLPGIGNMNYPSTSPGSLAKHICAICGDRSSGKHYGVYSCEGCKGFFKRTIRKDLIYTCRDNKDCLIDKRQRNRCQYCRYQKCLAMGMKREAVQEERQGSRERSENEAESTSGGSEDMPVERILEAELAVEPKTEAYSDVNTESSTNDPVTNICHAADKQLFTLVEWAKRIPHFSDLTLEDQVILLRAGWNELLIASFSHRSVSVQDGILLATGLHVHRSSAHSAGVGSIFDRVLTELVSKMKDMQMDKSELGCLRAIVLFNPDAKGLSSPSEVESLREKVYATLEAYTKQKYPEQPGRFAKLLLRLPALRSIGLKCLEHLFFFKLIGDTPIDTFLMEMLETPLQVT
Method: (§1) Radiolabelled ADRES wild type (lanes 1-5) and mutant (lanes 6-7) sequences were incubated with in vitro transcribed/translated CXR (lanes 3-7), chicken RXR (lanes 2 and 4-7) and anti-RXR antibody (lane 5 and 7), as indicated. Arrows depict the unbound probe, the shifted CXR-RXR-probe complex, and the supershifted CXR-RXR-probe-anti-RXR antibody complex;
(§2) Chicken CXR and RXR proteins were expressed using the TNT T7 Quick Coupled Translation System (Promega) according to the manufacturers protocol. Probes were labeled by Klenow reaction in the presence of radiolabeled [α-³²P]ATP and purified over a Biospin 6 chromatography column. A volume of labeled oligonucleotide corresponding to 100,000 cpm was used for each reaction in 10 mM Tris-HCL (8.0)/40 mM KCl/0.05% Nonidet P40′/6% glycerol (vol./vol.)/1 mM DTT containing 0.2 μg of poly(dI-dC) and 2.5 μl in-vitro synthesized proteins as described previously (2, 7). To test for supershifts, 0.5 μl monoclonal anti-mouse-RXR rabbit antibody (kindly provided by P. Chambon, Université Louis Pasteur, Illkirch, France) were added to the reaction mix. This antibody has been previously tested for interactions with chicken RXR in Western blots (data not shown). The reaction mix was incubated for 20 min at room temperature and electrophoresed on a 6% polyacrylamide gel in 0.5× Tris/borate/EDTA buffer followed by autoradiography.

CXR/RXR heterodimer [2] = biological target: T2, CXR/RXR heterodimer (Gallus gallus, UniProt A0A8V1AGS4;P28701 A0A8V1AGS4:1-375,P28701:1-467); assay: EMSA; supershifted by anti-RXR; details: tags: TNT T7 Quick Coupled; pSG5; label: 32P
T2 sequence (chain, as listed by the source): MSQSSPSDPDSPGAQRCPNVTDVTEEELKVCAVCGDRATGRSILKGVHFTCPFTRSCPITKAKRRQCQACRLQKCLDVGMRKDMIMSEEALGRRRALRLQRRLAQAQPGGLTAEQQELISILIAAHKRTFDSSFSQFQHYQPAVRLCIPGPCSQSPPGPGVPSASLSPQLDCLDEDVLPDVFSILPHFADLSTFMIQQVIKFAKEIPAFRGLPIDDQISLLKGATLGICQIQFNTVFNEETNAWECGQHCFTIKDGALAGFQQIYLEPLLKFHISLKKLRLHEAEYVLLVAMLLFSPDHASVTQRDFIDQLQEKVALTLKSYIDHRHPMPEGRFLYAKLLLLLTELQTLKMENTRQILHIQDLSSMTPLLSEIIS
Method: as §1, §2

PXR = biological target: T3, PXR (Homo sapiens, UniProt O75469 O75469:1-434); assay: EMSA; PXR alone; details: tags: TNT reticulocyte lysate; label: radiolabel
T3 sequence: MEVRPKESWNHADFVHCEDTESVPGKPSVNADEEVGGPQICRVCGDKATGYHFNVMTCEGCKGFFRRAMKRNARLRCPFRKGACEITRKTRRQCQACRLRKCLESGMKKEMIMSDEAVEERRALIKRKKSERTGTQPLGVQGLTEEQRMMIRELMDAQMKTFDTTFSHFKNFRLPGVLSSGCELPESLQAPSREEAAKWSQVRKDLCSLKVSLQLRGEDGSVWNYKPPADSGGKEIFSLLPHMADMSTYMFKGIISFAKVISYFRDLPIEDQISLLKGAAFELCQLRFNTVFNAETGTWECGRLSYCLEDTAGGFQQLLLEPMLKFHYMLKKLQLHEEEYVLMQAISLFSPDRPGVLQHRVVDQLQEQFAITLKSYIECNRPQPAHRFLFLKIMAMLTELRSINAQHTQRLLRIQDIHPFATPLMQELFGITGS
Source text: (§3) FIG. 19 depicts the results of an electrophoretic mobility shift assay, assaying the ability of human PXR and human CAR to bind to the hA174 and hA240 elements. Binding of these nuclear receptors happens in a heterodimeric state with the human 9-cis retinoic acid receptor RXRα. From expression plasmids encoding human RXRα, […] or CAR, receptor protein was made in vitro using the TNT reticulocyte lysate coupled transcription/translation system (Promega Corp.).
(§4) Lanes 1-4: Wildtype hA174 was incubated with no receptor (mock transcription/translation) or with RXRα, PXR or CAR alone. No complex is observed using single receptors. Lanes 5 and 7: Wild-type hA174 was incubated with RXRα and PXR or RXRα and CAR, upon which complex formation between radiolabeled probe and protein is observed. Lanes 6 and 8: Same conditions as in lanes 5 and 7, but instead of wild-type hA174, a radiolabeled probe was used where the half-site 2 was mutated. No complex is formed anymore.

RXRalpha = RXRalpha (Homo sapiens, UniProt P19793 P19793:1-462); assay: EMSA; RXRalpha alone; details: tags: TNT reticulocyte lysate; label: radiolabel
Source text: as §3, §4

PXR/RXRalpha heterodimer = PXR/RXRalpha heterodimer (Homo sapiens, UniProt O75469;P19793 O75469:1-434,P19793:1-462); assay: EMSA; details: tags: TNT reticulocyte lysate; label: radiolabel
Source text: as §3, §4

CAR/RXRalpha heterodimer = CAR/RXRalpha heterodimer (Homo sapiens, UniProt Q14994;P19793 Q14994:1-352,P19793:1-462); assay: EMSA; details: tags: TNT reticulocyte lysate; label: radiolabel
Source text: as §3, §4

CAR = biological target: T4, CAR (Homo sapiens, UniProt Q14994 Q14994:1-352); assay: EMSA; CAR alone; details: tags: TNT reticulocyte lysate; label: radiolabel
T4 sequence: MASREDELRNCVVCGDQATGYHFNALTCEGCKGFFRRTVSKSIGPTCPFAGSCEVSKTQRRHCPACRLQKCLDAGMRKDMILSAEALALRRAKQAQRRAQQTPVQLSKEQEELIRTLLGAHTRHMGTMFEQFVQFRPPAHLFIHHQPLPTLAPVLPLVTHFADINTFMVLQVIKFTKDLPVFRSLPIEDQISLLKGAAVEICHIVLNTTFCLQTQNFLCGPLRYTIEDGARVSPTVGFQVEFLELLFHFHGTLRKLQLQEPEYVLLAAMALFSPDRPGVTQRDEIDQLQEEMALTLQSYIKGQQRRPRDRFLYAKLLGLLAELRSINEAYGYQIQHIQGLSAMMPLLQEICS
Source text: as §3, §4

CXR/RXR heterodimer [3] = biological target: T2, CXR/RXR heterodimer; assay: EMSA; binding virtually eliminated; details: tags: TNT T7 Quick Coupled; pSG5; label: 32P
Method: as §1, with “and mutant.” for “and mutant”, “incubated With” for “incubated with”, “antibody (Lane” for “antibody (lane”
as §2

CXR/RXR heterodimer [4] = biological target: T2, CXR/RXR heterodimer; assay: EMSA; supershifted by anti-RXR; 40 mM KCl, pH 8.0, poly(dI-dC), room temperature; details: tags: TNT T7 Quick Coupled; pSG5; label: 32P
Method: as §1, with “and mutant.” for “and mutant”, “incubated With” for “incubated with”, “antibody (Lane” for “antibody (lane”
as §2

RXR [5] = biological target: T1, RXR; assay: EMSA; RXR alone; details: tags: TNT T7 Quick Coupled; pSG5; label: 32P; remark: listed apart in the source
Method: as §1, with “and mutant.” for “and mutant”, “incubated With” for “incubated with”, “antibody (Lane” for “antibody (lane”
as §2

B1: 167 bp ADRES (dsDNA)
DNA 1: CTGCCTCCAGTCCTGAACTTTCTCTGCTGGGATGAGCAGAGTTCACGCTCGGCTGAACTCGTGACTGTGTCAACAGGGGGCATGAAGATCAGCACCAGGCAAAGGTGAGCGGAGTGCACAAGAATGAGGCAGAGACCTTTGGGACAAAGAGTTCCCCACCCGTGGGG
DNA 2: CCCCACGGGTGGGGAACTCTTTGTCCCAAAGGTCTCTGCCTCATTCTTGTGCACTCCGCTCACCTTTGCCTGGTGCTGATCTTCATGCCCCCTGTTGACACAGTCACGAGTTCAGCCGAGCGTGAACTCTGCTCATCCCAGCAGAGAAAGTTCAGGACTGGAGGCAG
Question: Does B1 bind (RXR [1])?
Answer: no binding

Question: Does B1 bind (CXR/RXR heterodimer [2])?
Answer: binds

B2: hA174 (dsDNA)
DNA 1: GCGCAAAGTCAACACAAGCCTCTCCACCGTGTGTCCATGTTTATGTGTATGCGCTGTGCCCCGTCATGCCACCTGGACGCAGGGACTCCAGTGACCTCTCCTTGCACAAGCCTCTGCTGGTTTGGGAAAGATTGGCATGACATCAGCCAAGCTCTGGCCTTGCCTTTTTTCCCT
DNA 2: AGGGAAAAAAGGCAAGGCCAGAGCTTGGCTGATGTCATGCCAATCTTTCCCAAACCAGCAGAGGCTTGTGCAAGGAGAGGTCACTGGAGTCCCTGCGTCCAGGTGGCATGACGGGGCACAGCGCATACACATAAACATGGACACACGGTGGAGAGGCTTGTGTTGACTTTGCGC
Question: Does B2 bind (PXR)?
Answer: no binding

Question: Does B2 bind (RXRalpha)?
Answer: no binding

Question: Does B2 bind (PXR/RXRalpha heterodimer)?
Answer: binds

Question: Does B2 bind (CAR/RXRalpha heterodimer)?
Answer: binds

Question: Does B2 bind (CAR)?
Answer: no binding

B3: 176 bp ADRES DR4-1/DR5 double mutant (dsDNA)
DNA 1: GGGCTCCATCGGCCTCTTCAGGTTATTGCTATGTTGGTATCGTGTCGAGTTCCTCCCTGTTTTCAAGGTTCTGATAACAAACTTCTAGGACAGCCTGGCTGCAGTTGGCGAATTCTCCTCTTTAAACTCCGGTGGCTTTTGCTTCATTGCCTAGTTGTTACCCAGCAGTAAAGATC
DNA 2: GATCTTTACTGCTGGGTAACAACTAGGCAATGAAGCAAAAGCCACCGGAGTTTAAAGAGGAGAATTCGCCAACTGCAGCCAGGCTGTCCTAGAAGTTTGTTATCAGAACCTTGAAAACAGGGAGGAACTCGACACGATACCAACATAGCAATAACCTGAAGAGGCCGATGGAGCCC
Question: Does B3 bind (CXR/RXR heterodimer [3])?
Answer: no binding

B4: 176 bp ADRES (dsDNA)
DNA 1: GGGCTCCATCGGCCTCTTCAGGTTATTGCTATGTTCAACTCGTGTGACCTTCCTCCCTGTTTTCAAGGTTCTGATAACAAACTTCTAGGACAGCCTGGTGACCTTTGGCTCAGCTTCCTCTTTAAACTCCGGTGGCTTTTGCTTCATTGCCTAGTTGTTACCCAGCAGTAAAGATC
DNA 2: GATCTTTACTGCTGGGTAACAACTAGGCAATGAAGCAAAAGCCACCGGAGTTTAAAGAGGAAGCTGAGCCAAAGGTCACCAGGCTGTCCTAGAAGTTTGTTATCAGAACCTTGAAAACAGGGAGGAAGGTCACACGAGTTGAACATAGCAATAACCTGAAGAGGCCGATGGAGCCC
Question: Which results are given for B4?
Answer: binding result (CXR/RXR heterodimer [4]): binds; binding result (RXR [5]): no binding
